Measured values published in patent US20240317851A1 (LANOVA MEDICINES, published 2024).
Where two headings read alike, the source gives them in different places.

T1: human Claudin 3 (human, UniProt O15551 1-220)
T1 construct: whole, on cells; also called CLDN3
T1 sequence (looked up): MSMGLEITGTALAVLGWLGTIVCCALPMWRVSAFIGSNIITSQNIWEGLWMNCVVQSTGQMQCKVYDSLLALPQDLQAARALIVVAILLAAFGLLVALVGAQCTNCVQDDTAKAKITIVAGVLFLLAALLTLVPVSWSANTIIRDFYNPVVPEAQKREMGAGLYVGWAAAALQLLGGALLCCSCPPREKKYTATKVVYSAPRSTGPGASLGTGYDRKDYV

T2: human Claudin 6 (human, UniProt P56747 1-220)
T2 sequence (looked up): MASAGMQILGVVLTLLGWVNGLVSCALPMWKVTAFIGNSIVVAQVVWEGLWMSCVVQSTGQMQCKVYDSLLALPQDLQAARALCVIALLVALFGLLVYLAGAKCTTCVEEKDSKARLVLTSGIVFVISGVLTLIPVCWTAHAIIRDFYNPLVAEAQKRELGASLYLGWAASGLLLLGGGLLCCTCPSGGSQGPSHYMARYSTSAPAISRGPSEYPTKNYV

T3: human Claudin 9 (human, UniProt O95484 1-217)
T3 construct: whole, on cells; also called CLDN9; CLND9
T3 sequence (looked up): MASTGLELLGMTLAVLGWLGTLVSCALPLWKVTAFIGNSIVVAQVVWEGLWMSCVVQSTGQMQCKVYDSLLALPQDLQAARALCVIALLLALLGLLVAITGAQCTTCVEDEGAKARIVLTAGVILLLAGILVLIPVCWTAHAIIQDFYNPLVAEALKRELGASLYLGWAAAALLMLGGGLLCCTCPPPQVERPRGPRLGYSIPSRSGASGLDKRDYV


Key:
human Claudin 3 [1] = molecular target: T1, human Claudin 3; test: flow cytometry, CHOK1/H_CLDN3 cells, Ab titrated from 100 nM
Protocol: In this example, cell-based binding of hu Abs on human CLDN3 expressing cells were assessed using flow cytometry.
(§1) Briefly, the CHOK1/H_CLDN3 cells were incubated with hu-Abs (from 100 nM, 6 folds dilution, 8 points). After incubation at 4° C. for 60 minutes. Cells were pelleted and washed twice with 2% FBS/PBS buffer, and stained with fluorescent conjugated secondary antibody at 4° C. for 30 minutes. After that the cells were washed twice and resuspended in 80 μL of 2% FBS/PBS buffer. Fluorescent signal of binding was detected using Agilent. The EC50 was calculated using the GraphPad software.

human Claudin 6 [2] = molecular target: T2, human Claudin 6; test: flow cytometry, OVCAR3 cells (endogenous CLDN6), Ab titrated from 100 nM
Protocol: In this example, FACS binding of chimeric Abs to Ovcar3 and Ov90 cells with claudin 6 endogenous expression were assessed using flow cytometry.
as §1, with “Claudin 6 endogenous expression cell line” for “Briefly, the CHOK1/H_CLDN3 cells”, “chimeric Abs” for “hu-Abs”, “6-fold” for “6 folds”, “points) for 60 minutes” for “points). After incubation”, “C.” for “C. for 60 minutes.”

human Claudin 9 [3] = molecular target: T3, human Claudin 9; test: flow cytometry, HEK293/H_CLDN9 cells, Ab titrated from 100 nM
human Claudin 9 [4] = molecular target: T3, human Claudin 9; test: as above; remark: listed apart in the source
Protocol: (§2) In this example, cell based binding of chimeric Abs on human CLDN6 & CLND9 over-expressing cell line were assessed using flow cytometry.
as §1, with “the” for “the CHOK1/H_CLDN3”, “chimeric Abs” for “hu-Abs”, “6-fold” for “6 folds”, “points) for 60 minutes” for “points). After incubation”, “C.” for “C. for 60 minutes.”, “software (LaJolla, CA).” for “software.”

human Claudin 6 [5] = molecular target: T2, human Claudin 6; test: flow cytometry, HEK293/H_CLDN6 cells, Ab titrated from 100 nM
Protocol: as §2
as §1, with “the” for “the CHOK1/H_CLDN3”, “chimeric Abs” for “hu-Abs”, “6-fold” for “6 folds”, “points) for 60 minutes” for “points). After incubation”, “C.” for “C. for 60 minutes.”, “software (LaJolla, CA).” for “software.”

human Claudin 6 [6] = molecular target: T2, human Claudin 6; test: cell-based or functional assay
human Claudin 6 [7] = molecular target: T2, human Claudin 6; test: cell-based or functional assay; remark: listed apart in the source
human Claudin 6 [8] = molecular target: T2, human Claudin 6; test: cell-based or functional assay; remark: listed apart in the source
human Claudin 6 [9] = molecular target: T2, human Claudin 6; test: cell-based or functional assay; remark: listed apart in the source
human Claudin 6 [10] = molecular target: T2, human Claudin 6; test: cell-based or functional assay; remark: listed apart in the source
human Claudin 3 [11] = molecular target: T1, human Claudin 3; test: flow cytometry, CHOK1/CLDN3 cells
Protocol: In this example, cell based binding of chimeric antibody 97-C10E1-2 toward human CLDN3 overexpression cell line were assessed using flow cytometry.
as §1, with “Briefly,” for “Briefly, the CHOK1/H_CLDN3”, “chimeric antibody” for “hu-Abs”, “Software.” for “software.”

| Molecule | Top MFI (human Claudin 6 [2]) | Top MFI (human Claudin 9 [4]) | Top MFI (human Claudin 6 [5]) | internalization Top RLU (HEK293/H_CLDN6) (human Claudin 6 [6]) [RLU] | Inhibition Rate (%) (HEK293/H_CLDN6) (human Claudin 6 [7]) | cytotoxicity IC50 (nM), OV90 cells, 5 days (human Claudin 6 [9]) [nM] | cytotoxicity IC50 (nM), OVCAR3 cells, 5 days (human Claudin 6 [9]) [nM] | cytotoxicity IC50 (nM), PA-1 cells, 5 days (human Claudin 6 [9]) [nM] | cytotoxicity IC50 (nM), CLDN6 High Exp HEK293 cells, 5 days (human Claudin 6 [10]) [nM] | other results |
| --- | --- | --- | --- | --- | --- | --- | --- | --- | --- | --- |
| hIgG1 Isotype (antibody) | 126 |  |  |  |  |  |  |  |  | Top MFI (human Claudin 3 [1]): 128; Top MFI (human Claudin 6 [2]; record 2): 101; Top MFI (human Claudin 9 [3]): 140 |
| 67-C12E11 (antibody, V domains shown, Tested as chimeric antibody) VH: EVQLQQSGPELVKPGASVKISCKTSGYTFTEYTMHWVKQSHGKSLEWIGGINPNNGGTSYNQKFKGKATLTVDKSSSTAYMELRSLTSEDSAVYYCARGMVVAFYFDSWGQGTTLTVSS VL: DIQMTQSPASQSASLGESVTITCLASQTIGSWLAWYQQKPGKSPQLLIYAATSLADGVPSRFSGSGSGTKFSFKISSLQAEDFVSYYCQQLYSTPYTFGGGTKLEIK | 165 | 28800 | 161000 | 446000 | 83.9 |  |  |  |  |  |
| z5-MMAE (antibody, V domains shown, MMAE conjugated to the antibody; residues and drug load not stated) VH: QVQLVQSGAEVKKPGASVKVSCKASGYAFTGYTMNWVRQAPGQGLEWIGLSNPYNAGTIYNQKFKGRVTMTVDKSTSTVYMELSSLRSEDTAVYYCARNYYYGSSYAYYYAMDYWGQGTTVTVSS VL: DIVVTQSPSSLSTSVGDRVTITCRSSTGAVTTSNYANWVQEKPGKAFKGLIGGTNNRAPGVPARFSGSLSGDDAALTISSAQPEDFATYFCALWYSNHWVFGGGTKVEIK |  |  |  |  |  | 0.76 | 0.13 | 0.11 | 0.1 | Min cell viability, OV90 (CLDN6 low) (human Claudin 6 [8]): 8%; Min cell viability, OVCAR-3 (CLDN6 mid) (human Claudin 6 [8]): 3.71%; Min cell viability, PA-1 (CLDN6 high) (human Claudin 6 [8]): 4.88% |
| z5-Eribulin (antibody, V domains shown, eribulin conjugated to the antibody; residues and drug load not stated) VH: QVQLVQSGAEVKKPGASVKVSCKASGYAFTGYTMNWVRQAPGQGLEWIGLSNPYNAGTIYNQKFKGRVTMTVDKSTSTVYMELSSLRSEDTAVYYCARNYYYGSSYAYYYAMDYWGQGTTVTVSS VL: DIVVTQSPSSLSTSVGDRVTITCRSSTGAVTTSNYANWVQEKPGKAFKGLIGGTNNRAPGVPARFSGSLSGDDAALTISSAQPEDFATYFCALWYSNHWVFGGGTKVEIK |  |  |  |  |  | 4.66 | 0.11 | 0.46 | 0.1 |  |
| 97-C10E1-2 (antibody, V domains shown, Tested as chimeric antibody; also called chimeric antibody 97-C10E1-2) VH: EVQLQQSGPELVKPGASMKISCKASGYAFTGYTMNWVKQSHGKNLEWIGLSNPYNGGTIYNQKFKGKATLTVDKSSSTAYMELLSLTSEDSAVYYCARNYYYGSSYAYYYAMDYWGQGTSVTVSS VL: QAVVTQESALTTSPGETVTLTCRSSTGAVTTSNYANWVQEKPDHLFTGLIGGTNNRAPGVPARFSGSLIGDKAALTITGAQTEDEAIYFCALWYSNHWVFGGGTKLTVL | 2590 |  | 321000 | 829000 | 83.4 |  |  |  |  | binding result (human Claudin 3 [11]): no binding (tested: 100 nM (highest concentration tested)) |
| 83-F6A6 (antibody, V domains shown, Tested as chimeric antibody) VH: QVQLQQSAPELARPGASVRMSCKASGYTFTTYTMHWVKQRPGQGLEWIGFIIPSSGYTEYNQNLKDKTTLTADKASSTAYMQLTSLTSEDSAVYYCARQFSLITTGFGYALDYWGQGTSVTVSS VL: DIVMTQSRKFMSTSVGDRVSITCKASQDVSTAVAWYQQKPGQSPKLLLYWASTRHTGVPDRFTGSGSGTDYTLTISSVQAEDLALYYCQQHYSTPLTFGAGTKLELK | 227 | 23500 | 258000 | 710000 | 78.6 |  |  |  |  |  |
